Key:
Conditions in all cases: protein: recombinant;recombinant; tags: ;; copies: 1;1; blunt
PPARγ;RXRα [1] = target: T1, PPARγ;RXRα (human;human, UniProt P37231;P19793 1-505;1-462, |); assay: EMSA; positive control; anti-PPARγ supershift; 4 fmol labeled DNA, 3.7 pmol PPARγ, 3.9 pmol RXRα in 20 µl; 20 ng poly(dI.dC), 2.5% glycerol, 0.05% NP-40, 5 mM MgCl2; on ice 20 min; 4% native gel, 1x TBE, 4 °C; pH and salt not given
PPARγ;RXRα [2] = target: T1, PPARγ;RXRα; assay: EMSA; labeled mutant probe; 4 fmol labeled DNA, 3.7 pmol PPARγ, 3.9 pmol RXRα in 20 µl; 20 ng poly(dI.dC), 2.5% glycerol, 0.05% NP-40, 5 mM MgCl2; on ice 20 min; 4% native gel, 1x TBE, 4 °C; pH and salt not given
PPARγ;RXRα [3] = target: T1, PPARγ;RXRα; assay: EMSA; two shifted complexes; anti-PPARγ supershift; 4 fmol labeled DNA, 3.7 pmol PPARγ, 3.9 pmol RXRα in 20 µl; 20 ng poly(dI.dC), 2.5% glycerol, 0.05% NP-40, 5 mM MgCl2; on ice 20 min; 4% native gel, 1x TBE, 4 °C; pH and salt not given

B1: consensus PPRE (dsDNA)
DNA 1: CAAAACTAGGTCAAAGGTCA
DNA 2: TGACCTTTGACCTAGTTTTG
- binding result (PPARγ;RXRα [1]): binds

B2: CAT L-PPREmt (dsDNA)
DNA 1: TTATGCGGTACCCGCTTCGGTAATTATT
DNA 2: AATAATTACCGAAGCGGGTACCGCATAA
- binding result (PPARγ;RXRα [2]): no binding

B3: CAT B-PPRE (dsDNA)
DNA 1: TCTCCTGACCTGTGATCCGCCCGCCTCG
DNA 2: CGAGGCGGGCGGATCACAGGTCAGGAGA
- binding result (PPARγ;RXRα [3]): binds

B4: CAT B-PPREmt (dsDNA)
DNA 1: TCTCCTGATGTAGGATACTCCTGCCTCG
DNA 2: CGAGGCAGGAGTATCCTACATCAGGAGA
- binding result (PPARγ;RXRα [2]): no binding

B5: CAT L-PPRE (dsDNA)
DNA 1: TTATGGGGTAAAGGCAGAGGTAATTATT
DNA 2: AATAATTACCTCTGCCTTTACCCCATAA
- binding result (PPARγ;RXRα [3]): binds

— publication PMC6345753, “Curcumin inhibits the TGF-β1-dependent differentiation of lung fibroblasts via PPARγ-driven upregulation of cathepsins B and L”
